Assay results reported in patent US20170182124A1, “FGF21 Derivatives and Uses Thereof” (Novo Nordisk A/S, priority 2014, published 2017).
Like-named read-outs stand apart in the source and are kept apart here.

Assays:
FGF receptor/BKL complex = assay: FGF receptor potency in an Erk phosphorylation assay in HEK293 overexpressing human BKL; assay type: cell-based; conditions: for EC50: HEK293/BKL cells, pERK after 12 minutes
Procedure: In order to test the binding of the FGF21 derivatives to albumin, the assay was performed in the absence of serum albumin as well as in the presence of human serum albumin (HSA) (0.1% final assay concentration). An increase in EC50 value (decrease in potency) in the presence of serum albumin for FGF21 derivatives would indicate binding to serum albumin and represents a method to predict a protracted pharmacokinetic profile of the test substance in animal models. MetFGF21 (SEQ ID NO:2) is included for reference.
HEK293 cells endogenously express several FGF receptors, including FGFR1c, FGFR3c and FGFR4. These cells are unresponsive to FGF21 until transfected with the co-receptor beta-klotho (BKL). Activation of the FGF receptor/BKL complex leads to activation of the MAPK/ERK signalling pathway and phosphorylation of ERK. The level of phosphorylated ERK (pERK) at a given time point increases with increasing concentrations of FGF21. As described below the level of pERK is measured after 12 minutes of stimulation with a range of FGF21 analogue concentrations.
The HEK293/beta-klotho cells are seeded with 30.000 cells/well in 96 well plates in DMEM (BioWhittaker #BE12-604F/U1), supplemented with 10% FCS (Gibco #16140-071), 1% penicillin/streptomycin (Gibco #15140), 100 µg/ml Hygromycin B, (Calbiochem, # 400052). Two days later and 2 hours before addition of compound the cell medium is exchanged with 100 ∞l basal medium (DMEM (BioWhittaker #BE12-604F/U1)). The FGF21 analogues are diluted in assay medium (DMEM (BioWhittaker #BE12-604F/U1) supplemented with 0.02% Tween20), warmed to 37° C., added to the cells (100 μl) and incubated at 37° C. for 12 minutes. The FGF21 derivatives were also tested in the presence of 0.1% HSA (Sigma—A1887). All medium is quickly removed and 50 μl lysis buffer is added pr. well. The plate is shaken for 5 minutes and the lysate is ready for measurement of pERK. pERK is measured in 384 well plates with the AlphaScreen SureFire kit (PerkinElmer #TGRES10K). This kit is based on ERK and pERK specific antibodies coupled to donor and acceptor beads. The presence of pERK will bring acceptor and donor beads in close proximity and a signal is generated that is read on EnVision. The data are analysed using GraphPad Prism and the potency of the FGF21 proteins is described as absolute EC50 value.

3T3-L1 adipocytes = 3T3-L1 adipocytes (Mus musculus, UniProt P16092+Q99N32); assay: Glucose uptake in 3T3-L1 adipocytes; assay type: cell-based; conditions: stimulated 20 hours, 3H-deoxy-glucose
Procedure: The C-terminal modified analogues were tested for their ability to increase glucose uptake in 3T3-L1 mouse adipocytes. The following assay was used for determining the biological activity, or potency, of FGF21 analogues and derivatives of the invention.
The in vitro potency may also be determined in an assay with mouse 3T3-L1 adipocytes by testing the FGF21 analogues and derivatives for their ability to increase glucose uptake into adipocytes. Differentiated 3T3-L1 adipocytes endogenously express FGFR1c and BKL. The 3T3-L1 cells are unresponsive to FGF21 until after differentiated as differentiation lead to expression of the co-receptor BKL. Activation of the FGFR1 receptor/BKL complex increase the expression of glucose transporter 1 (GLUT1) and therefore FGF21 agonists will lead to an increased amount of glucose taken into the adipocytes in a dose responsive manner.
Mouse 3T3-L1 fibroblasts (e.g. available from ATCC, catalogue no. CL-173) were maintained in basal medium (DMEM (4500 mg/I Glucose) with 10% Fetal Bovine Serum (FBS) and 1% Penicillin/Streptomycin). The cells are not allowed to reach confluence and should be passed (transferred to new vials) before reaching approx. 60% of confluency (by visual inspection).
For the glucose uptake assay, cells were 15.000 cells/well in a 96 well plate (BIOCOAT), and when they reached confluency (high density, with a view to have differentiated adipose cells made), the medium was changed from basal medium to basal medium containing Troglitazone, IBMX, Dexamethasone (commercially available from, e.g., Sigma) and human insulin (commercially available from, e.g., Novo Nordisk A/S).
The cells were used 7-9, days after initiation of differentiation. The cells were stimulated with increasing concentrations (0-300 nM) of the FGF21 analogues or derivatives of the invention for 20 hours in basal medium. Before addition of 3H-deoxy-glucose (in what follows: the tracer) the cells were washed in warm (approximately 37° C.) assay buffer (PBS with 1 mM MgCl2 and 2 mM CaCl2), HEPES and 0.1% Human serum albumin) and the cells were incubated with the tracer for 1 hour. This incubation was terminated by washing twice in ice cold assay buffer. The cells were lysed with Triton X-100 and lysates transferred to a 96 wells plate, microscint-40 (commercially available from, e.g., Perkin Elmer) was added and amount of tracer counted in a TOP-counter (e.g. a Packard top-counter from Perkin Elmer). The EC50 and Emax of the FGF21 compound in question were calculated. The results which are shown in tables 4-5 below indicate the EC50 (potency) and Emax (efficacy) of the FGF21 analogues and derivatives, respectively.

[1] = presence of 0.1% HSA, read-out: EC50 (0.1% HSA)

Sequence of 3T3-L1 adipocytes (Q99N32 whole entry): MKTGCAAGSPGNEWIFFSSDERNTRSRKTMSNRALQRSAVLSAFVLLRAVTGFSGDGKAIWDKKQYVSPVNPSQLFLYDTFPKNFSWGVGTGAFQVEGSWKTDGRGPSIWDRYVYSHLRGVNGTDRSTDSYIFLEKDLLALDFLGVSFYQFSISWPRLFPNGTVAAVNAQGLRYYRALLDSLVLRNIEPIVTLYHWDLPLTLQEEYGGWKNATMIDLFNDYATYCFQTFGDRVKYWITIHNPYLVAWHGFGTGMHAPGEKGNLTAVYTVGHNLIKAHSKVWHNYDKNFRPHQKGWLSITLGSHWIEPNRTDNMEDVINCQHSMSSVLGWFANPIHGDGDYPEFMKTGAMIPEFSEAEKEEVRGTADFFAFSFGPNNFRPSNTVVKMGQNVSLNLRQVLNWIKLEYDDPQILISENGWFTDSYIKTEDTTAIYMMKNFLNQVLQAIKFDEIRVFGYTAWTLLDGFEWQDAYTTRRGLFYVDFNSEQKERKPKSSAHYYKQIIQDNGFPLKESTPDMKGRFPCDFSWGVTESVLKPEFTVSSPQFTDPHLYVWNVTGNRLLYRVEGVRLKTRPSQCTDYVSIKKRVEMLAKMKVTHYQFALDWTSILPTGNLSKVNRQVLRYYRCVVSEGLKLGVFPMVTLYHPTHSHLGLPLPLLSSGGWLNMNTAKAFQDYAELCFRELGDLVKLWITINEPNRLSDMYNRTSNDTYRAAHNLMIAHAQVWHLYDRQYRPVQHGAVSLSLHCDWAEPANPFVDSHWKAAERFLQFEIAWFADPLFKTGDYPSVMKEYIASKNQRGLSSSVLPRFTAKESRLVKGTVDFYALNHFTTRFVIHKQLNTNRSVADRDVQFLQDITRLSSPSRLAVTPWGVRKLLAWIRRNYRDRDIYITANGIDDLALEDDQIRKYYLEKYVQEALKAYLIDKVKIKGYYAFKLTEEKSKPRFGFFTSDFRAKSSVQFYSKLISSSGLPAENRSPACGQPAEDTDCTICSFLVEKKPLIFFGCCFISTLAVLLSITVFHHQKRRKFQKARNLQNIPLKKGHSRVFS
Sequence of 3T3-L1 adipocytes (P16092 22-822): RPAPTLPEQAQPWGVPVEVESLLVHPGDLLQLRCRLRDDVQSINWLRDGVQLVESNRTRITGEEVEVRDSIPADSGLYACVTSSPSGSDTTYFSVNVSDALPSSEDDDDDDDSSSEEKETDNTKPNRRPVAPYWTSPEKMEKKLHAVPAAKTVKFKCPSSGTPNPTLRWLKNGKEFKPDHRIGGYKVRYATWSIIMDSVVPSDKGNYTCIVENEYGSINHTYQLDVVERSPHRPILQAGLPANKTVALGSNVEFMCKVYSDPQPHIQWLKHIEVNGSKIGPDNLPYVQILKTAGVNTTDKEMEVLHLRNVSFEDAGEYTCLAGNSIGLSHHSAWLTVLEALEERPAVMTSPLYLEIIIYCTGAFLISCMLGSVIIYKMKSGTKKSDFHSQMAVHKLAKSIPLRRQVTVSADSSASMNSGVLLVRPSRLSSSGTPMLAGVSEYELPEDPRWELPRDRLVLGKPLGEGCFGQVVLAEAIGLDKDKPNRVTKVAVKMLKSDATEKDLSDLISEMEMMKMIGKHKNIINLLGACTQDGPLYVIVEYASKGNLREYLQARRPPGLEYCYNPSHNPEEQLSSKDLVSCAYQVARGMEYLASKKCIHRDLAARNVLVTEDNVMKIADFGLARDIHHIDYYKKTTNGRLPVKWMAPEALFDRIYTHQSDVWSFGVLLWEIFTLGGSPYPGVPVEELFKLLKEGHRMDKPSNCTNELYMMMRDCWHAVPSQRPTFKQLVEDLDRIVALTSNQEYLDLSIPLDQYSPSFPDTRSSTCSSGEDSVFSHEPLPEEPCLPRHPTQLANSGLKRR
Sequence of FGF receptor/BKL complex (Q86Z14 whole entry, one chain of several): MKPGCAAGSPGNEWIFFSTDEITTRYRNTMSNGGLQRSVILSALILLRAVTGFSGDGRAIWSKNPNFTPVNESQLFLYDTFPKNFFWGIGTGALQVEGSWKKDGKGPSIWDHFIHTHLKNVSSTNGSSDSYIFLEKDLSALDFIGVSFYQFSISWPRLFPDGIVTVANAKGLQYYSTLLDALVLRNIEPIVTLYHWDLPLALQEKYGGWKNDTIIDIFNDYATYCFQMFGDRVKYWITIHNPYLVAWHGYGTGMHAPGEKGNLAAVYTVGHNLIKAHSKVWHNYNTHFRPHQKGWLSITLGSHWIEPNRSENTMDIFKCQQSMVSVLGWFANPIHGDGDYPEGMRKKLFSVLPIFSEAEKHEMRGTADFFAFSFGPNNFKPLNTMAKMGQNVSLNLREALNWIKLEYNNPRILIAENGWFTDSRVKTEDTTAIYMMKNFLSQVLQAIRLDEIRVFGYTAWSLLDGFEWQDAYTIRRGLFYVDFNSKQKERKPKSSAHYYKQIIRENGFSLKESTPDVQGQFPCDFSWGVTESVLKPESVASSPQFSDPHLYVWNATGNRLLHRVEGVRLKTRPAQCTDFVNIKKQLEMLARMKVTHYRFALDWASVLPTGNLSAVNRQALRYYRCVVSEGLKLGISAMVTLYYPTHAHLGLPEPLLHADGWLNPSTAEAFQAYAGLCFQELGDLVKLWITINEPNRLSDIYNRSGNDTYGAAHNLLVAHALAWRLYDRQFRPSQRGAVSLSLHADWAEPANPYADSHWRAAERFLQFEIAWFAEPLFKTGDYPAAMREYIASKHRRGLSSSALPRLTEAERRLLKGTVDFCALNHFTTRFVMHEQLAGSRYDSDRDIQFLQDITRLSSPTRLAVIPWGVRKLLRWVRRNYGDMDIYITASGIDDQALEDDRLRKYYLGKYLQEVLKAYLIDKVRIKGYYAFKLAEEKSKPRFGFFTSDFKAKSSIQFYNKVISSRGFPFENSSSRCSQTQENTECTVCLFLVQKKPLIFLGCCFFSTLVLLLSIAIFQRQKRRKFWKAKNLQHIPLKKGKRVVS

Molecule | EC50 (FGF receptor/BKL complex; absence of HSA, read-out: EC50) [nM] | EC50 (FGF receptor/BKL complex; [1]) [nM] | EC50 (3T3-L1 adipocytes) [nM] | Glucose uptake Emax (3T3-L1 adipocytes) [%] | potency in HEK293/BKL cells compared with MetFGF21 or corresponding analogue (in words) (FGF receptor/BKL complex; absence of HSA)
S{Beta-178}-[2-[2-[[2-[2-[2-[[2-[2-[2-[[(4S)-4-carboxy-4-(15-carboxypentadecanoyl-amino)butanoyl]amino]ethoxy]ethoxy]acetyl]amino]ethoxy]ethoxy]acetyl]amino]-ethylamino]-2-oxoethyl]-Ala[Gln121,Leu168,Cys178]FGF21 [Compound 11] | 167 | 137 | 186 | 59 | –
S{Beta-180}-2-aminoethylsulfanyl-Ala[Gln121, Leu168, Cys180]FGF21 (protein, N-terminal Ala; cysteamine disulfide on Cys180) AHPIPDSSPLLQFGGQVRQRYLYTDDAQQTEAHLEIREDGTVGGAADQSPESLLQLKALKPGVIQILGVKTSRFLCQRPDGALYGSLHFDPEACSFRELLLEDGYNVYQSEAHGLPLHLPGQKSPHRDPAPRGPARFLPLPGLPPALPEPPGILAPQPPDVGSSDPLSLVGPSQGRSPSYCS | 2.3 | – | 2.6 | 102 | potency similar to both MetFGF21 and Compound 2
S{Beta-181}-2-aminoethylsulfanyl-Ala[Gln121, Leu168, Cys181]FGF21 (protein, N-terminal Ala; cysteamine disulfide on Cys181) AHPIPDSSPLLQFGGQVRQRYLYTDDAQQTEAHLEIREDGTVGGAADQSPESLLQLKALKPGVIQILGVKTSRFLCQRPDGALYGSLHFDPEACSFRELLLEDGYNVYQSEAHGLPLHLPGQKSPHRDPAPRGPARFLPLPGLPPALPEPPGILAPQPPDVGSSDPLSLVGPSQGRSPSYAC | 27 | – | 5 | 74 | only slightly decreased as compared to MetFGF21
16-[[4-[[(1S)-4-[2-[2-[2-[2-[2-[2-[[(1S)-5-[(2-acetamido]-1-carboxy-pentyl]amino]-2-oxo-ethoxy]ethoxy]ethylamino]-2-oxo-ethoxy]ethoxy]ethylamino]-1-carboxy-4-oxo-butyl]carbamoyl]cyclohexyl]methylamino … (protein) HPIPDSSPLLQFGGQVRQRYLYTDDAQQTEAHLEIREDGTVGGAADQSPESLLQLKALKPGVIQILGVKTSRFLCQRPDGALYGSLHFDPEACSFRELLLEDGYNVYQSEAHGLPLHLPGQKSPHRDPAPRGPARFLPLPGLPPALPEPPGILAPQPPDVGSSDPLSLVGPSQGRSPSYCS | 4 | 2.1 | – | – | –
4-[10-[[(1S)-4-[2-[2-[2-[2-[2-[2-[[(1S)-5-acetamido-1-carboxy-pentyl]amino]-2-oxo-ethoxy]ethoxy]ethylamino]-2-oxo-ethoxy]ethoxy]ethylamino]-1-carboxy-4-oxo-butyl]amino]-10-oxo-decoxy]benzoic … (protein) HPIPDSSPLLQFGGQVRQRYLYTDDAQQTEAHLEIREDGTVGGAADQSPESLLQLKALKPGVIQILGVKTSRFLCQRPDGALYGSLHFDPEACSFRELLLEDGYNVYQSEAHGLPLHLPGQKSPHRDPAPRGPARFLPLPGLPPALPEPPGILAPQPPDVGSSDPLSLVGPSQGRSPSYAC | 26.4 | 138 | – | – | –
4-[10-[[(1S)-4-[2-[2-[2-[2-[2-[2-[[(1S)-5-acetamido-1-carboxy-pentyl]amino]-2-oxo-ethoxy]ethoxy]ethylamino]-2-oxo-ethoxy]ethoxy]ethylamino]-1-carboxy-4-oxo-butyl]amino]-10-oxo-decoxy]benzoic … (protein) HPIPDSSPLLQFGGQVRQRYLYTDDAQQTEAHLEIREDGTVGGAADQSPESLLQLKALKPGVIQILGVKTSRFLCQRPDGALYGSLHFDPEACSFRELLLEDGYNVYQSEAHGLPLHLPGQKSPHRDPAPRGPARFLPLPGLPPALPEPPGILAPQPPDVGSSDPLSLVGPSQGRSPSYCS | 5 | 3 | – | – | –
4-[10-[[4-[2-[2-[2-[2-[2-[2-[[(1S)-5-acetamido-1-carboxy-pentyl]amino]-2-oxo-ethoxy]ethoxy]ethylamino]-2-oxo-ethoxy]ethoxy]ethylamino]-4-oxo-butyl]sulfonylamino]-10-oxo-decoxy]benzoic … (protein) HPIPDSSPLLQFGGQVRQRYLYTDDAQQTEAHLEIREDGTVGGAADQSPESLLQLKALKPGVIQILGVKTSRFLCQRPDGALYGSLHFDPEACSFRELLLEDGYNVYQSEAHGLPLHLPGQKSPHRDPAPRGPARFLPLPGLPPALPEPPGILAPQPPDVGSSDPLSLVGPSQGRSPSYAC | 24.7 | 132 | – | – | –
12-[[4-[[(1S)-4-[2-[2-[2-[2-[2-[2-(2-acetamidoethylamino)-2-oxo-ethoxy]ethoxy]ethylamino]-2-oxo-ethoxy]ethoxy]ethylamino]-1-carboxy-4-oxo-butyl]carbamoyl]cyclohexyl]methylamino]-12-oxo-dodecanoic … (protein) HPIPDSSPLLQFGGQVRQRYLYTDDAQQTEAHLEIREDGTVGGAADQSPESLLQLKALKPGVIQILGVKTSRFLCQRPDGALYGSLHFDPEACSFRELLLEDGYNVYQSEAHGLPLHLPGQKSPHRDPAPRGPARFLPLPGLPPALPEPPGILAPQPPDVGSSDPLSLVGPSQGRSPSYCS | 4 | 4.7 | – | – | –
18-[[4-[[(1S)-4-[2-[2-[2-[2-[2-[2-[[(1S)-5-[(2-acetamido]-1-carboxy-pentyl]amino]-2-oxo-ethoxy]ethoxy]ethylamino]-2-oxo-ethoxy]ethoxy]ethylamino]-1-carboxy-4-oxo-butyl]carbamoyl]cyclohexyl]methylamino … (protein) HPIPDSSPLLQFGGQVRQRYLYTDDAQQTEAHLEIREDGTVGGAADQSPESLLQLKALKPGVIQILGVKTSRFLCQRPDGALYGSLHFDPEACSFRELLLEDGYNVYQSEAHGLPLHLPGQKSPHRDPAPRGPARFLPLPGLPPALPEPPGILAPQPPDVGSSDPLSLVGPSQGRSPSYCS | 4 | 14 | – | – | –
